The record followed here is patent publication US20210015937A1.

The target in the assay is human LAG-3 expressed on cells (human) (UniProt P18627). As to the kind of experiment: cell-based or functional assay.
Chain of human LAG-3 expressed on cells (human) (P18627 23-525 limits assumed): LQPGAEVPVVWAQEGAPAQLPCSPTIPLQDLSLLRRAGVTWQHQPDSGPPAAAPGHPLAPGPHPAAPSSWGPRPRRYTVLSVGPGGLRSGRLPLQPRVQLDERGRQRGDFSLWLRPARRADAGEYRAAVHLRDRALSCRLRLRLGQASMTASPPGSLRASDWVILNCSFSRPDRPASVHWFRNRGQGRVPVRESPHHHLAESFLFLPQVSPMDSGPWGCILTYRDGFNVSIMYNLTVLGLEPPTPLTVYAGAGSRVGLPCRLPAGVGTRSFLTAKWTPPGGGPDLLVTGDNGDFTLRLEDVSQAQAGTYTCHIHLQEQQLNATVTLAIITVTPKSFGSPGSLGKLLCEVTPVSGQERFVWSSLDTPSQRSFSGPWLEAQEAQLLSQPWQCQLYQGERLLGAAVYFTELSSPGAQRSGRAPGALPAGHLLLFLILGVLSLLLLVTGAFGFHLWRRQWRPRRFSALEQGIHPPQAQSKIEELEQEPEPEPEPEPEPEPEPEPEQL

Mouse anti-LAG3 antibody clone 17B4: the EC50 (M), NFAT-Luciferase Reporter Gene assay (LAG-3:MHCII) stood at 3.2e-08 M.
“Human anti-LAG3 antibody (Relatlimab analogue)” displayed an EC50 (M), NFAT-Luciferase Reporter Gene assay (LAG-3:MHCII) of 4e-09 M.
